In publication PMC11349179, “Comparative analysis of the LARP1 C-terminal DM15 region through Coelomate evolution” (PLOS ONE, 2024):

Columns and labels:
[1] = biological target: DrDM15 (zebrafish) (UniProt F1R0U5); experiment: EMSA; conditions: 5' m7G cap (Vaccinia capping), EMSA: 20 mM Tris-HCl pH 8, 150 mM NaCl, 10% glycerol, 1 mM DTT, 0.5 ug tRNA, 1 ug BSA, pM RNA (95 C, snap cooled), native 7% PAGE, 0.5X TBE
[2] = biological target: T1, DmDM15 (Drosophila melanogaster, UniProt Q9VAW5); experiment: differential scanning fluorimetry (SYPRO Orange); type: binding; conditions: 5 uM protein, 500 uM ligand; 50 mM Tris-HCl pH 8, 100 mM NaCl, 0.6 mM DTT, 10% glycerol
T1 construct: gene larp; C-terminal DM15 region; E. coli BL21(DE3); His6-MBP tag removed with TEV protease; monomer
T1 sequence (Q9VAW5 1330-1481): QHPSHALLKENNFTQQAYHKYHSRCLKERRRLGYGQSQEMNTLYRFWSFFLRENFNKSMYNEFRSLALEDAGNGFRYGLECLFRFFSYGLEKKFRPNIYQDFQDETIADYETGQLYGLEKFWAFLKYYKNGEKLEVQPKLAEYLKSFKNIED

[3] = biological target: T2, DrDM15 (Danio rerio, UniProt A0A8M9P457); experiment: differential scanning fluorimetry (SYPRO Orange); type: binding; conditions: 5 uM protein, 500 uM ligand; 50 mM Tris-HCl pH 8, 100 mM NaCl, 0.6 mM DTT, 10% glycerol
T2 construct: gene larp1; C-terminal DM15 region, residues 754-904; E. coli BL21(DE3); His6-MBP tag removed with TEV protease; Gly6 linker after TEV site; monomer
T2 sequence (A0A8M9P457 778-928): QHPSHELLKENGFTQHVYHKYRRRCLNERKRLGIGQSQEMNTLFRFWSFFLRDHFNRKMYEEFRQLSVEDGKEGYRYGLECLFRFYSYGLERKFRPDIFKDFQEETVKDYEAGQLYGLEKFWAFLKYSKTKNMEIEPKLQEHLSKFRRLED

[4] = biological target: T3, HsDM15 (Homo sapiens, UniProt Q6PKG0); experiment: differential scanning fluorimetry (SYPRO Orange); type: binding; conditions: 5 uM protein, 500 uM ligand; 50 mM Tris-HCl pH 8, 100 mM NaCl, 0.6 mM DTT, 10% glycerol
T3 construct: gene LARP1; C-terminal DM15 region; E. coli BL21(DE3); His6-MBP tag removed with TEV protease; monomer; residues 796-941 used in simulation only

[5] = biological target: DmDM15 (fruit fly, UniProt A0A0B4K7Y7 1330-1481); experiment: EMSA; EMSA: 20 mM Tris-HCl pH 8, 150 mM NaCl, 10% glycerol, 1 mM DTT, 0.5 ug tRNA, 1 ug BSA, pM RNA (95 C, snap cooled), 0.5-1 h on ice; native 7% PAGE, 0.5X TBE; conditions: protein: recombinant, tags: His6-MBP removed by TEV, label: 32P in cap
DmDM15 (fruit fly, UniProt A0A0B4K7Y7 1330-1481), sequence (A0A0B4K7Y7 entry or part of it): as the sequence (Q9VAW5 1330-1481) above

[6] = biological target: T4, HsDM15 (Homo sapiens, UniProt Q6PKG0-3 796-946); experiment: as above; conditions: protein: recombinant, tags: His6-MBP removed by TEV, label: 32P in cap
[7] = biological target: T4, HsDM15; experiment: EMSA; stated only as picomolar affinity; EMSA: 20 mM Tris-HCl pH 8, 150 mM NaCl, 10% glycerol, 1 mM DTT, 0.5 ug tRNA, 1 ug BSA, pM RNA (95 C, snap cooled), 0.5-1 h on ice; native 7% PAGE, 0.5X TBE; conditions: protein: recombinant; tags: His6-MBP removed by TEV; label: 32P in cap
[8] = 5' end paired in one predicted fold

“CCUCUUUUCCGCUUAUCUCUUUGAGAUAAAUGCAUAUUUUUU [HsRPS6_Stem, capped]” showed a Kd ([1]; 0.5-1 h on …) of 7900 pM.

“CCUCUUUUCCGUGGCGCCUCGGAGGCGUUCAGCUGCUUCAAG [HsRPS6 42-mer, capped]” was tested, and the Kd ([1]; 0.5-1 h on …) was 10000 pM.

Work on “CCUUCUCCCCGCUUAUCUCUUUGAGAUAAAUGCAUAUUUUUU [HsPABPC1_Stem, capped]” yielded a Kd ([1]; 0.5-1 h on …) of 6900 pM.

“CCUUCUCCCCGGCGGUUAGUGCUGAGAGUGCGGAGUGUGUGC [HsPABPC1 42-mer, capped]” showed a Kd ([1]; 0.5-1 h on …) of 97000 pM.

In the case of “CUUUUGCCAUUGUCAGCCGACGAAGUGCUUUAACCCAAACUA [DmRPL30 42-mer, capped]”, the Kd ([1]; stated only as picomolar affinity, 0.5-1 h on ice) is reported as < 1000 pM.

For `C[n+]1cn([C@@H]2O[C@H](COP(=O)(O)OP(=O)(O)OP(=O)(O)O)[C@@H](O)[C@H]2O)c2nc(N)[nH]c(=O)c21` [m^7GTP], the Tm [2] was “thermal stabilization of all three orthologs in the presence of a cap analog (Fig 3D)”, the Tm [3] was “thermal stabilization of all three orthologs in the presence of a cap analog (Fig 3D)” and the Tm [4] was “thermal stabilization of all three orthologs in the presence of a cap analog (Fig 3D)”.

In the case of CCUCUUUUCCGUGGCGCCUCGGAGGCGUUCAGCUGCUUCAAG (structured_RNA, 5' m7G cap (Vaccinia capping)) [HsRPS6 42-mer, capped], the Kd ([5]; hairpin (predicted)) is reported as 58 ± 0.02 nM and the Kd ([6]; hairpin (predicted)) is reported as 3.9 ± 0.2 nM.

Molecule CCUCUUUUCCGCUUAUCUCUUUGAGAUAAAUGCAUAUUUUUU (structured_RNA, 5' m7G cap (Vaccinia capping)) [HsRPS6_Stem, capped] has a Kd ([5]; hairpin (predicted)) of 29 ± 0.06 nM and a Kd ([6]; hairpin (predicted)) of 1.9 ± 0.05 nM.

Work on CCUUCUCCCCGCUUAUCUCUUUGAGAUAAAUGCAUAUUUUUU (structured_RNA, 5' m7G cap (Vaccinia capping)) [HsPABPC1_Stem, capped] yielded a Kd ([5]; hairpin (predicted)) of 6.1 ± 0.03 nM and a Kd ([6]; hairpin (predicted)) of 1.5 ± 0.04 nM.

Work on CCUUCUCCCCGGCGGUUAGUGCUGAGAGUGCGGAGUGUGUGC (structured_RNA, 5' m7G cap (Vaccinia capping)) [HsPABPC1 42-mer, capped] yielded a Kd [5, 8] of 140 ± 0.02 nM and a Kd [6, 8] of 18 ± 0.06 nM.

With CUUUUGCCAUUGUCAGCCGACGAAGUGCUUUAACCCAAACUA (ssRNA, 5' m7G cap (Vaccinia capping)) [DmRPL30 42-mer, capped] the Kd [7] was < 1 nM.
